The values that follow are results of earlier work, collected in PMC11070850.

In the data set the target is mucin 1 (UniProt P15941). To be noted: 10 mM MOPS, 100 mM NaNO3, pH 7.6, room temperature, 60 min (aptamer + mucin 1 + DNA nanospheres); then CuSO4 50 min and calcein 2 min.
mucin 1, sequence (P15941 24-1158): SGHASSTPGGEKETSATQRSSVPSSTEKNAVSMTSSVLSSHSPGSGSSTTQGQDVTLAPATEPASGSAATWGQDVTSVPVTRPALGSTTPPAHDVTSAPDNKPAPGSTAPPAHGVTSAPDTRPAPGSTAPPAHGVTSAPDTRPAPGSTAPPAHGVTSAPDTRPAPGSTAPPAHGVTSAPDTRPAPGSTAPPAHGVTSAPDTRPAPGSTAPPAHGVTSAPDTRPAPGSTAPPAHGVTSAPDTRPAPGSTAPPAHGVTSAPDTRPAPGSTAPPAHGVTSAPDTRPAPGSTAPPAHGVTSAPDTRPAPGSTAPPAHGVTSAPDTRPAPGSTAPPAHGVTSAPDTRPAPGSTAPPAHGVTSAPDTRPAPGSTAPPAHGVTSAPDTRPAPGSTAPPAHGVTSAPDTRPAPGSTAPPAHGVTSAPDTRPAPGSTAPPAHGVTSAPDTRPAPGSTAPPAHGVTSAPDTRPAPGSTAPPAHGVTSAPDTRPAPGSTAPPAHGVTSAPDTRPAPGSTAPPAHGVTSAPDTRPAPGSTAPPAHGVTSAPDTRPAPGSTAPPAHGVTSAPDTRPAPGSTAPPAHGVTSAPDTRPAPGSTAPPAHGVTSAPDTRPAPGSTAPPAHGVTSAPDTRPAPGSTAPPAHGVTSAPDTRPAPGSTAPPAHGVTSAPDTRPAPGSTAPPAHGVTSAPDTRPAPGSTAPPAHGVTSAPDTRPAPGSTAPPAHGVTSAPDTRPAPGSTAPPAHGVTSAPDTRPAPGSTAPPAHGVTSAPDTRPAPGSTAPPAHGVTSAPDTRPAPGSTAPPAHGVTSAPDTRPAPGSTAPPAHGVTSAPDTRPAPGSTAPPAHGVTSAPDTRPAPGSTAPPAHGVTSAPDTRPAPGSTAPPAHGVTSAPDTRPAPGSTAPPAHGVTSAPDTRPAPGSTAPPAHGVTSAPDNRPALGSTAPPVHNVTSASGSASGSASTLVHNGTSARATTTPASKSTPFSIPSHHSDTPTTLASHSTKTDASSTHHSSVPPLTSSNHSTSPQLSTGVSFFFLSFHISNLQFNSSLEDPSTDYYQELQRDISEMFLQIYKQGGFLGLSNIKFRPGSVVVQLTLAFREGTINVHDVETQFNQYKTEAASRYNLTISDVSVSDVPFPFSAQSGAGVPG

For “GCAGTTGATCCTTTGGATACCCTGG [mucin 1 aptamer]”, the dissociation constant (Kd) (usually the concentration at which binding is half-saturated) is 135 pM.
